# Results taken from patent US20050261190A1 (SK, published 2005).
# Columns and labels:
# [1] = target: T1, heat shock protein 70 cognate (Hsc70), endogenous (human, UniProt P11142 2-646); test: co-immunoprecipitation with anti-Flag M2 agarose from HEK293T lysate, 2D gel, MALDI-TOF MS (table of Flag-hFAF1 binding proteins)
# T1 construct: In the 1D western blots it is detected together with Hsp70 by one anti-Hsc70/Hsp70 monoclonal antibody; statements on 'Hsc70/Hsp70' are written once for each of the two; also called member of Hsc70/Hsp70
# Description: Protein spots detected in the autoradiogram were cut out from the corresponding silver stained gel and subjected to in-gel digestion with trypsin and mass peptide fingerprint analyses using MALDI-TOF MS.
# [2] = target: heat shock protein 70 inducible (Hsp70), endogenous (human, UniProt P0DMV8 2-641); test: cell-based or functional assay
# [3] = target: bacterial Hsp70, DnaK (E. coli, UniProt P0A6Y8 2-638); test: not told (data not shown)
# [4] = target: T2, polyubiquitin chains (Ub2-7), synthetic Lys48-linked (UniProt P0CG47 1-76, units linked by Lys48 isopeptide bonds); test: GST pull-down, immunoblot with anti-ubiquitin
# T2 construct: A mixture of chains of 2 to 7 ubiquitin units; also called multiubiquitin chains
# heat shock protein 70 inducible (Hsp70), endogenous, sequence (P0DMV8 2-641): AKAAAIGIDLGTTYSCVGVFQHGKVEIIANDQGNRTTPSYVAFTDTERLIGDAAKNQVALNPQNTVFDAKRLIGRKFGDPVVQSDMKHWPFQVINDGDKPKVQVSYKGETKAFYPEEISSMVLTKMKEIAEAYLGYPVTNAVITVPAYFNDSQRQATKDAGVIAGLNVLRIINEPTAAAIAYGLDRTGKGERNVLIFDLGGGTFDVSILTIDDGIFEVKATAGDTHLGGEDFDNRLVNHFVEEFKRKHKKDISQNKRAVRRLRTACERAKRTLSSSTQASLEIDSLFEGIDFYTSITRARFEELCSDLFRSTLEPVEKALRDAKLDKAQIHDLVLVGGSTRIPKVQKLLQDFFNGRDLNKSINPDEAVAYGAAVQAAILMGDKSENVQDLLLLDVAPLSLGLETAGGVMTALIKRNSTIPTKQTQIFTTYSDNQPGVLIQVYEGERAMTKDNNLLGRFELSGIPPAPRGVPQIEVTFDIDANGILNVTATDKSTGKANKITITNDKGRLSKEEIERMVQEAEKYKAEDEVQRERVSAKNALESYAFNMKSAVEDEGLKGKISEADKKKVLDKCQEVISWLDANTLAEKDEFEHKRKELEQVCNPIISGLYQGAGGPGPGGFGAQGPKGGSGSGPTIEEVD
# bacterial Hsp70, DnaK, sequence (P0A6Y8 2-638 limits assumed): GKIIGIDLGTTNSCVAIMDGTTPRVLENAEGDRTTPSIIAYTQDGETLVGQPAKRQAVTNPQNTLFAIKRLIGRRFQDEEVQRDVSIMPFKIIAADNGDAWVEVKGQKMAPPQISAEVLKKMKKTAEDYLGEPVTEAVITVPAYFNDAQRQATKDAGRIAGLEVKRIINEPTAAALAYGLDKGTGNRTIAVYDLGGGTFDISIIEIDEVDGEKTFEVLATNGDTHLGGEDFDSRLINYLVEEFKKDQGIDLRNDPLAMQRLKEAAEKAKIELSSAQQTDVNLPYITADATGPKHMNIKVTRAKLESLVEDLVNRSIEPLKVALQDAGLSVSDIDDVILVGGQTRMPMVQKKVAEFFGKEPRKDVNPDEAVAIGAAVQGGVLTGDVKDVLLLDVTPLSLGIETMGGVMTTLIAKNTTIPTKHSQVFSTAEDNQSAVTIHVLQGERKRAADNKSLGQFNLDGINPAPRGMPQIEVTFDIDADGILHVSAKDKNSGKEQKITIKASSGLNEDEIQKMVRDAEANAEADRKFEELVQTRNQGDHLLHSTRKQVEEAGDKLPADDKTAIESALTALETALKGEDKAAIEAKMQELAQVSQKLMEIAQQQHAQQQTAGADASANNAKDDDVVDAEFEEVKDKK
# T1 sequence (P11142 2-646 limits assumed): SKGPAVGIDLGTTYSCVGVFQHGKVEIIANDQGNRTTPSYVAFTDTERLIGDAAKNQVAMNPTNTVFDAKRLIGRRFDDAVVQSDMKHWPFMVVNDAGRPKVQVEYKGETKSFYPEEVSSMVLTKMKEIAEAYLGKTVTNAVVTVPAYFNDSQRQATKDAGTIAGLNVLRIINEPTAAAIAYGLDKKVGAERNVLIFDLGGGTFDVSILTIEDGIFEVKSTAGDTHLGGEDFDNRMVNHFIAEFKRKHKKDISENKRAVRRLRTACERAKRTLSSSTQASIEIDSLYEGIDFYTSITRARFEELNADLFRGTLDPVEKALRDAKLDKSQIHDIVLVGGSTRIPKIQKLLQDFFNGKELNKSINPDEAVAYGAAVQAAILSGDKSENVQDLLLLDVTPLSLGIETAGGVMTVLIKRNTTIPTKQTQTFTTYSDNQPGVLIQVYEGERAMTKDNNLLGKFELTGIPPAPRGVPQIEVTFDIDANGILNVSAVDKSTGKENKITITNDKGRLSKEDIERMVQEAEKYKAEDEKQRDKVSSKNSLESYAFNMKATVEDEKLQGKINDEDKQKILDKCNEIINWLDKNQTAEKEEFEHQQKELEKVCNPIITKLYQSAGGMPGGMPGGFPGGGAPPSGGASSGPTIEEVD
binder,measurement,setting,value
"Flag-tagged hFAF1 (human Fas associated factor 1, full form) (other, Transiently overexpressed in HEK293T cells and pulled out of the lysate with anti-Flag M2 agarose; also called Flag-hFAF1; pFlag-CMV-2/hFAF1; not shown: Flag tag from the pFlag-CMV-2 vector) MASNMDREMILADFQACTGIENIDEAITLLEQNNWDLVAAINGVIPQENGILQSEYGGETIPGPAFNPASHPASAPTSSSSSAFRPVMPSRQIVERQPRMLDFRVEYRDRNVDVVLEDTCTVGEIKQILENELQIPVSKMLLKGWKTGDVEDSTVLKSLHLPKNNSLYVLTPDLPPPSSSSHAGALQESLNQNFMLIITHREVQREYNLNFSGSSTIQEVKRNVYDLTSIPVRHQLWEGWPTSATDDSMCLAESGLSYPCHRLTVGRRSSPAQTREQSEEQITDVHMVSDSDGDDFEDATEFGVDDGEVFGMASSALRKSPMMPENAENEGDALLQFTAEFSSRYGDCHPVFFIGSLEAAFQEAFYVKARDRKLLAIYLHHDESVLTNVFCSQMLCAESIVSYLSQNFITWAWDLTKDSNRARFLTMCNRHFGSVVAQTIRTQKTDQKPLFLIIMGKRSSNEVLNVIQGNTTVDELMMRLMAAMEIFTAQQQEDIKDGDEREARENVKREQDEAYRLSLEADRAKREAREREMAEQFRLEQIRKEQEEEREAIRLSLEQALPPEPKEENAEPVSKLRIRTPSGEFLERRFLASNKLQIVFDFVASKGFPWDEYKLLSTFPRRDVTQLDPNKSLLEVKLFPQETLFLEAKE",binding result,[1],binds
same,SAPK/JNK activity after heat shock,[2],16 fold
"purified recombinant hFAF1 (other, also called hFAF1 cleaved by thrombin from GST-hFAF1) MASNMDREMILADFQACTGIENIDEAITLLEQNNWDLVAAINGVIPQENGILQSEYGGETIPGPAFNPASHPASAPTSSSSSAFRPVMPSRQIVERQPRMLDFRVEYRDRNVDVVLEDTCTVGEIKQILENELQIPVSKMLLKGWKTGDVEDSTVLKSLHLPKNNSLYVLTPDLPPPSSSSHAGALQESLNQNFMLIITHREVQREYNLNFSGSSTIQEVKRNVYDLTSIPVRHQLWEGWPTSATDDSMCLAESGLSYPCHRLTVGRRSSPAQTREQSEEQITDVHMVSDSDGDDFEDATEFGVDDGEVFGMASSALRKSPMMPENAENEGDALLQFTAEFSSRYGDCHPVFFIGSLEAAFQEAFYVKARDRKLLAIYLHHDESVLTNVFCSQMLCAESIVSYLSQNFITWAWDLTKDSNRARFLTMCNRHFGSVVAQTIRTQKTDQKPLFLIIMGKRSSNEVLNVIQGNTTVDELMMRLMAAMEIFTAQQQEDIKDGDEREARENVKREQDEAYRLSLEADRAKREAREREMAEQFRLEQIRKEQEEEREAIRLSLEQALPPEPKEENAEPVSKLRIRTPSGEFLERRFLASNKLQIVFDFVASKGFPWDEYKLLSTFPRRDVTQLDPNKSLLEVKLFPQETLFLEAKE",binding result,[3],binds
"GST-hFAF1[82-650] (other, Immobilized on glutathione sepharose; also called amino acid 82-650; not shown: glutathione S-transferase (GST) tag) SAFRPVMPSRQIVERQPRMLDFRVEYRDRNVDVVLEDTCTVGEIKQILENELQIPVSKMLLKGWKTGDVEDSTVLKSLHLPKNNSLYVLTPDLPPPSSSSHAGALQESLNQNFMLIITHREVQREYNLNFSGSSTIQEVKRNVYDLTSIPVRHQLWEGWPTSATDDSMCLAESGLSYPCHRLTVGRRSSPAQTREQSEEQITDVHMVSDSDGDDFEDATEFGVDDGEVFGMASSALRKSPMMPENAENEGDALLQFTAEFSSRYGDCHPVFFIGSLEAAFQEAFYVKARDRKLLAIYLHHDESVLTNVFCSQMLCAESIVSYLSQNFITWAWDLTKDSNRARFLTMCNRHFGSVVAQTIRTQKTDQKPLFLIIMGKRSSNEVLNVIQGNTTVDELMMRLMAAMEIFTAQQQEDIKDGDEREARENVKREQDEAYRLSLEADRAKREAREREMAEQFRLEQIRKEQEEEREAIRLSLEQALPPEPKEENAEPVSKLRIRTPSGEFLERRFLASNKLQIVFDFVASKGFPWDEYKLLSTFPRRDVTQLDPNKSLLEVKLFPQETLFLEAKE",binding result,[4],no binding
"Flag-hFAF1[366-650] (other, not shown: small tags and cut ends) YVKARDRKLLAIYLHHDESVLTNVFCSQMLCAESIVSYLSQNFITWAWDLTKDSNRARFLTMCNRHFGSVVAQTIRTQKTDQKPLFLIIMGKRSSNEVLNVIQGNTTVDELMMRLMAAMEIFTAQQQEDIKDGDEREARENVKREQDEAYRLSLEADRAKREAREREMAEQFRLEQIRKEQEEEREAIRLSLEQALPPEPKEENAEPVSKLRIRTPSGEFLERRFLASNKLQIVFDFVASKGFPWDEYKLLSTFPRRDVTQLDPNKSLLEVKLFPQETLFLEAKE",SAPK/JNK activity after heat shock,[2],13 fold
